B1: library; numbered along this chain (parent)
chain: MAAAAAAAAEQQSSNGPVKKSMREKAVERRSVNKEHNSNFKAGYIPIDEDRLHKTGLRGRKGNLAICVIILLFILAVINLIITLVIWAVIRIGPNGCDSMEFHESGLLRFKQVSDMGVIHPLYKSTVGGRRNENLVITGNNQPIVFQQGTTKLSVENNKTSITSDIGMQFFDPRTQNILFSTDYETHEFHLPSGVKSLNVQKASTERITSNATSDLNIKVDGRAIVRGNEGVFIMGKTIEFHMGGNMELKAENSIILNGSVMVSTTRLPSSSSGDQLGSGDWVRYKLCMCADGTLFKVQVTSQNMGCQISDNPCGNTH

Variants of: B1
Assay: SGCB cell-surface expression functional score (HA stain, bin4 vs bin1, normalised to synonymous) (log10 ratio); higher = more cell-surface SGCB (functional)
Procedure, shortened: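 The functional score is a log ratio of variant frequency in the highest versus the lowest intensity bin, expressed as a median over codons and duplicate transductions. Codon-saturation libraries of HA-tagged, YFP-fused human beta-sarcoglycan were transduced by lentivirus at MOI <0.1 into HEK293 cells stably expressing alpha-, gamma- and delta-sarcoglycan, and the cells were stained on ice with Alexa Fluor 647 anti-HA, fixed and sorted into four 5% intensity bins before amplicon sequencing. Synonymous variants were scaled to mean 0, SD 0.5 within each section.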

Variant | SGCB cell-surface expression functional score (log10)
MAAAAAAAAEQQSSNGPVKKSMREKAVERRSVNKEHNSNFKAGYIPIDEDRLHKTGLRGRKGNLAICVIILLFILAVINLIITLVIWAVIRIGPNGCDSMEFHESGLLRFKQVSDMGVIHPLYKSTVGGRRNENLVITGNNQPIVFQQGTTKLSVENNKTSITSDIGMQFFDPRTQNILFSTDYETHEFHLPSGVKSLNVQKASTERITSNAISDLNIKVDGRAIVRGNEGVFIMGKTIEFHMGGNMELKAENSIILNGSVMVSTTRLPSSSSGDQLGSGDWVRYKLCMCADGTLFKVQVTSQNMGCQISDNPCGNTH [T213I] | 0.5
MAAAAAAAAEQQSSNGPVKKSMREKAVERRSVNKEHNSNFKAGYIPIDEDRLHKTGLRGRKGNLAICVIILLFILAVINLIITLVIWAVIRIGPNGCDSMEFHESGLLRFKQVSDMGVIHPLYKSTVGGRRNENLVITGNNQPIVFQQGTTKLSVENNKTSITSDIGMQFFDPRTQNILFSTDYETHEFHLPSGVKSLNVQKASTERITSNAPSDLNIKVDGRAIVRGNEGVFIMGKTIEFHMGGNMELKAENSIILNGSVMVSTTRLPSSSSGDQLGSGDWVRYKLCMCADGTLFKVQVTSQNMGCQISDNPCGNTH [T213P] | -1.5
MAAAAAAAAEQQSSNGPVKKSMREKAVERRSVNKEHNSNFKAGYIPIDEDRLHKTGLRGRKGNLAICVIILLFILAVINLIITLVIWAVIRIGPNGCDSMEFHESGLLRFKQVSDMGVIHPLYKSTVGGRRNENLVITGNNQPIVFQQGTTKLSVENNKTSITSDIGMQFFDPRTQNILFSTDYETHEFHLPSGVKSLNVQKASTERITSNALSDLNIKVDGRAIVRGNEGVFIMGKTIEFHMGGNMELKAENSIILNGSVMVSTTRLPSSSSGDQLGSGDWVRYKLCMCADGTLFKVQVTSQNMGCQISDNPCGNTH [T213L] | -0.5
MAAAAAAAAEQQSSNGPVKKSMREKAVERRSVNKEHNSNFKAGYIPIDEDRLHKTGLRGRKGNLAICVIILLFILAVINLIITLVIWAVIRIGPNGCDSMEFHESGLLRFKQVSDMGVIHPLYKSTVGGRRNENLVITGNNQPIVFQQGTTKLSVENNKTSITSDIGMQFFDPRTQNILFSTDYETHEFHLPSGVKSLNVQKASTERITSNAFSDLNIKVDGRAIVRGNEGVFIMGKTIEFHMGGNMELKAENSIILNGSVMVSTTRLPSSSSGDQLGSGDWVRYKLCMCADGTLFKVQVTSQNMGCQISDNPCGNTH [T213F] | -0.31
MAAAAAAAAEQQSSNGPVKKSMREKAVERRSVNKEHNSNFKAGYIPIDEDRLHKTGLRGRKGNLAICVIILLFILAVINLIITLVIWAVIRIGPNGCDSMEFHESGLLRFKQVSDMGVIHPLYKSTVGGRRNENLVITGNNQPIVFQQGTTKLSVENNKTSITSDIGMQFFDPRTQNILFSTDYETHEFHLPSGVKSLNVQKASTERITSNAASDLNIKVDGRAIVRGNEGVFIMGKTIEFHMGGNMELKAENSIILNGSVMVSTTRLPSSSSGDQLGSGDWVRYKLCMCADGTLFKVQVTSQNMGCQISDNPCGNTH [T213A] | -0.44
MAAAAAAAAEQQSSNGPVKKSMREKAVERRSVNKEHNSNFKAGYIPIDEDRLHKTGLRGRKGNLAICVIILLFILAVINLIITLVIWAVIRIGPNGCDSMEFHESGLLRFKQVSDMGVIHPLYKSTVGGRRNENLVITGNNQPIVFQQGTTKLSVENNKTSITSDIGMQFFDPRTQNILFSTDYETHEFHLPSGVKSLNVQKASTERITSNAMSDLNIKVDGRAIVRGNEGVFIMGKTIEFHMGGNMELKAENSIILNGSVMVSTTRLPSSSSGDQLGSGDWVRYKLCMCADGTLFKVQVTSQNMGCQISDNPCGNTH [T213M] | 0.76
MAAAAAAAAEQQSSNGPVKKSMREKAVERRSVNKEHNSNFKAGYIPIDEDRLHKTGLRGRKGNLAICVIILLFILAVINLIITLVIWAVIRIGPNGCDSMEFHESGLLRFKQVSDMGVIHPLYKSTVGGRRNENLVITGNNQPIVFQQGTTKLSVENNKTSITSDIGMQFFDPRTQNILFSTDYETHEFHLPSGVKSLNVQKASTERITSNASSDLNIKVDGRAIVRGNEGVFIMGKTIEFHMGGNMELKAENSIILNGSVMVSTTRLPSSSSGDQLGSGDWVRYKLCMCADGTLFKVQVTSQNMGCQISDNPCGNTH [T213S] | 0.08
MAAAAAAAAEQQSSNGPVKKSMREKAVERRSVNKEHNSNFKAGYIPIDEDRLHKTGLRGRKGNLAICVIILLFILAVINLIITLVIWAVIRIGPNGCDSMEFHESGLLRFKQVSDMGVIHPLYKSTVGGRRNENLVITGNNQPIVFQQGTTKLSVENNKTSITSDIGMQFFDPRTQNILFSTDYETHEFHLPSGVKSLNVQKASTERITSNADSDLNIKVDGRAIVRGNEGVFIMGKTIEFHMGGNMELKAENSIILNGSVMVSTTRLPSSSSGDQLGSGDWVRYKLCMCADGTLFKVQVTSQNMGCQISDNPCGNTH [T213D] | -0.81
MAAAAAAAAEQQSSNGPVKKSMREKAVERRSVNKEHNSNFKAGYIPIDEDRLHKTGLRGRKGNLAICVIILLFILAVINLIITLVIWAVIRIGPNGCDSMEFHESGLLRFKQVSDMGVIHPLYKSTVGGRRNENLVITGNNQPIVFQQGTTKLSVENNKTSITSDIGMQFFDPRTQNILFSTDYETHEFHLPSGVKSLNVQKASTERITSNARSDLNIKVDGRAIVRGNEGVFIMGKTIEFHMGGNMELKAENSIILNGSVMVSTTRLPSSSSGDQLGSGDWVRYKLCMCADGTLFKVQVTSQNMGCQISDNPCGNTH [T213R] | 0.18
MAAAAAAAAEQQSSNGPVKKSMREKAVERRSVNKEHNSNFKAGYIPIDEDRLHKTGLRGRKGNLAICVIILLFILAVINLIITLVIWAVIRIGPNGCDSMEFHESGLLRFKQVSDMGVIHPLYKSTVGGRRNENLVITGNNQPIVFQQGTTKLSVENNKTSITSDIGMQFFDPRTQNILFSTDYETHEFHLPSGVKSLNVQKASTERITSNAKSDLNIKVDGRAIVRGNEGVFIMGKTIEFHMGGNMELKAENSIILNGSVMVSTTRLPSSSSGDQLGSGDWVRYKLCMCADGTLFKVQVTSQNMGCQISDNPCGNTH [T213K] | 0.23
MAAAAAAAAEQQSSNGPVKKSMREKAVERRSVNKEHNSNFKAGYIPIDEDRLHKTGLRGRKGNLAICVIILLFILAVINLIITLVIWAVIRIGPNGCDSMEFHESGLLRFKQVSDMGVIHPLYKSTVGGRRNENLVITGNNQPIVFQQGTTKLSVENNKTSITSDIGMQFFDPRTQNILFSTDYETHEFHLPSGVKSLNVQKASTERITSNAGSDLNIKVDGRAIVRGNEGVFIMGKTIEFHMGGNMELKAENSIILNGSVMVSTTRLPSSSSGDQLGSGDWVRYKLCMCADGTLFKVQVTSQNMGCQISDNPCGNTH [T213G] | 0.65
MAAAAAAAAEQQSSNGPVKKSMREKAVERRSVNKEHNSNFKAGYIPIDEDRLHKTGLRGRKGNLAICVIILLFILAVINLIITLVIWAVIRIGPNGCDSMEFHESGLLRFKQVSDMGVIHPLYKSTVGGRRNENLVITGNNQPIVFQQGTTKLSVENNKTSITSDIGMQFFDPRTQNILFSTDYETHEFHLPSGVKSLNVQKASTERITSNAESDLNIKVDGRAIVRGNEGVFIMGKTIEFHMGGNMELKAENSIILNGSVMVSTTRLPSSSSGDQLGSGDWVRYKLCMCADGTLFKVQVTSQNMGCQISDNPCGNTH [T213E] | 0.86
MAAAAAAAAEQQSSNGPVKKSMREKAVERRSVNKEHNSNFKAGYIPIDEDRLHKTGLRGRKGNLAICVIILLFILAVINLIITLVIWAVIRIGPNGCDSMEFHESGLLRFKQVSDMGVIHPLYKSTVGGRRNENLVITGNNQPIVFQQGTTKLSVENNKTSITSDIGMQFFDPRTQNILFSTDYETHEFHLPSGVKSLNVQKASTERITSNAHSDLNIKVDGRAIVRGNEGVFIMGKTIEFHMGGNMELKAENSIILNGSVMVSTTRLPSSSSGDQLGSGDWVRYKLCMCADGTLFKVQVTSQNMGCQISDNPCGNTH [T213H] | -0.04
MAAAAAAAAEQQSSNGPVKKSMREKAVERRSVNKEHNSNFKAGYIPIDEDRLHKTGLRGRKGNLAICVIILLFILAVINLIITLVIWAVIRIGPNGCDSMEFHESGLLRFKQVSDMGVIHPLYKSTVGGRRNENLVITGNNQPIVFQQGTTKLSVENNKTSITSDIGMQFFDPRTQNILFSTDYETHEFHLPSGVKSLNVQKASTERITSNAQSDLNIKVDGRAIVRGNEGVFIMGKTIEFHMGGNMELKAENSIILNGSVMVSTTRLPSSSSGDQLGSGDWVRYKLCMCADGTLFKVQVTSQNMGCQISDNPCGNTH [T213Q] | 0.13
MAAAAAAAAEQQSSNGPVKKSMREKAVERRSVNKEHNSNFKAGYIPIDEDRLHKTGLRGRKGNLAICVIILLFILAVINLIITLVIWAVIRIGPNGCDSMEFHESGLLRFKQVSDMGVIHPLYKSTVGGRRNENLVITGNNQPIVFQQGTTKLSVENNKTSITSDIGMQFFDPRTQNILFSTDYETHEFHLPSGVKSLNVQKASTERITSNANSDLNIKVDGRAIVRGNEGVFIMGKTIEFHMGGNMELKAENSIILNGSVMVSTTRLPSSSSGDQLGSGDWVRYKLCMCADGTLFKVQVTSQNMGCQISDNPCGNTH [T213N] | 0.03
MAAAAAAAAEQQSSNGPVKKSMREKAVERRSVNKEHNSNFKAGYIPIDEDRLHKTGLRGRKGNLAICVIILLFILAVINLIITLVIWAVIRIGPNGCDSMEFHESGLLRFKQVSDMGVIHPLYKSTVGGRRNENLVITGNNQPIVFQQGTTKLSVENNKTSITSDIGMQFFDPRTQNILFSTDYETHEFHLPSGVKSLNVQKASTERITSNACSDLNIKVDGRAIVRGNEGVFIMGKTIEFHMGGNMELKAENSIILNGSVMVSTTRLPSSSSGDQLGSGDWVRYKLCMCADGTLFKVQVTSQNMGCQISDNPCGNTH [T213C] | -0.94
MAAAAAAAAEQQSSNGPVKKSMREKAVERRSVNKEHNSNFKAGYIPIDEDRLHKTGLRGRKGNLAICVIILLFILAVINLIITLVIWAVIRIGPNGCDSMEFHESGLLRFKQVSDMGVIHPLYKSTVGGRRNENLVITGNNQPIVFQQGTTKLSVENNKTSITSDIGMQFFDPRTQNILFSTDYETHEFHLPSGVKSLNVQKASTERITSNWTSDLNIKVDGRAIVRGNEGVFIMGKTIEFHMGGNMELKAENSIILNGSVMVSTTRLPSSSSGDQLGSGDWVRYKLCMCADGTLFKVQVTSQNMGCQISDNPCGNTH [A212W] | -0.44
MAAAAAAAAEQQSSNGPVKKSMREKAVERRSVNKEHNSNFKAGYIPIDEDRLHKTGLRGRKGNLAICVIILLFILAVINLIITLVIWAVIRIGPNGCDSMEFHESGLLRFKQVSDMGVIHPLYKSTVGGRRNENLVITGNNQPIVFQQGTTKLSVENNKTSITSDIGMQFFDPRTQNILFSTDYETHEFHLPSGVKSLNVQKASTERITSNVTSDLNIKVDGRAIVRGNEGVFIMGKTIEFHMGGNMELKAENSIILNGSVMVSTTRLPSSSSGDQLGSGDWVRYKLCMCADGTLFKVQVTSQNMGCQISDNPCGNTH [A212V] | -0.06
MAAAAAAAAEQQSSNGPVKKSMREKAVERRSVNKEHNSNFKAGYIPIDEDRLHKTGLRGRKGNLAICVIILLFILAVINLIITLVIWAVIRIGPNGCDSMEFHESGLLRFKQVSDMGVIHPLYKSTVGGRRNENLVITGNNQPIVFQQGTTKLSVENNKTSITSDIGMQFFDPRTQNILFSTDYETHEFHLPSGVKSLNVQKASTERITSNYTSDLNIKVDGRAIVRGNEGVFIMGKTIEFHMGGNMELKAENSIILNGSVMVSTTRLPSSSSGDQLGSGDWVRYKLCMCADGTLFKVQVTSQNMGCQISDNPCGNTH [A212Y] | 0.86

Source: the supplement of paper PMC10266784
